Assay results: patent publication EP2107116A2

Tests used:
p97 (melanotransferrin) [1] = biological target: p97 (melanotransferrin) (UniProt P08582); assay: p97-coated plate, scFv-BLA culture broth, bound BLA activity (nitrocefin, 490 nm); ratio T1 (1 h dissociation)/T0 of mutant over parent; pH 6.5
p97 (melanotransferrin) [2] = biological target: p97 (melanotransferrin) (UniProt P08582); assay: p97-coated plate, scFv-BLA culture broth, bound BLA activity (nitrocefin, 490 nm); ratio T1 (1 h dissociation)/T0 of mutant over parent; pH 7.4

Sequence of UniProt P08582 (P08582 20-709 limits assumed): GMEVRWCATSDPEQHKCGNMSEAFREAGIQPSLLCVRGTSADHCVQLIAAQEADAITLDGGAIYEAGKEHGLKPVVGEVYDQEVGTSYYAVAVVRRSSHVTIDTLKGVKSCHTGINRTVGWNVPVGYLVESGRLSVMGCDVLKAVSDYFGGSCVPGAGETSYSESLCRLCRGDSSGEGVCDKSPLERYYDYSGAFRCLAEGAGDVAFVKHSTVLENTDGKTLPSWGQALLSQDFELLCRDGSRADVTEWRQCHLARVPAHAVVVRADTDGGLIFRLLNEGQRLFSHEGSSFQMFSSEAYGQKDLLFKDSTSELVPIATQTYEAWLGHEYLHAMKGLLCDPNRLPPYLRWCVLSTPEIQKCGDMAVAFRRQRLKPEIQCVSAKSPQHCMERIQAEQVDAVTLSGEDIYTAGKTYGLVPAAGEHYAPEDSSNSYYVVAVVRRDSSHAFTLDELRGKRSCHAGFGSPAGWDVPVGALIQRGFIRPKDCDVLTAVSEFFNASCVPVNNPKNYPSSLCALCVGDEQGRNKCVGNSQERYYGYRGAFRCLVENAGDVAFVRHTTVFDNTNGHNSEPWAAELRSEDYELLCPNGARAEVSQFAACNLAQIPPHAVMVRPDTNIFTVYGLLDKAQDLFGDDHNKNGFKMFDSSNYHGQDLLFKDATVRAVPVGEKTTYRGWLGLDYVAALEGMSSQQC

Substance: ME60 (SGN-17 scFv-BLA, light chain S95 to His)
- Index pH6.5 (p97 (melanotransferrin) [1]): 1.09
- Index pH7.4 (p97 (melanotransferrin) [2]): 1.04

Substance: ME50 (SGN-17 scFv-BLA, heavy chain Y103 to His)
- Index pH7.4 (p97 (melanotransferrin) [2]): 0.33

Substance: ME44 (SGN-17 scFv-BLA, heavy chain R97 to His)
- Index pH7.4 (p97 (melanotransferrin) [2]): 0.24

Substance: ME64 (SGN-17 scFv-BLA, light chain P99 to His)
- Index pH7.4 (p97 (melanotransferrin) [2]): 0.35

Substance: ME56 (SGN-17 scFv-BLA, heavy chain W109 to His)
- Index pH6.5 (p97 (melanotransferrin) [1]): 0.41
- Index pH7.4 (p97 (melanotransferrin) [2]): 0.57

Substance: ME54 (SGN-17 scFv-BLA, heavy chain D107 to His)
- Index pH6.5 (p97 (melanotransferrin) [1]): 0.7
- Index pH7.4 (p97 (melanotransferrin) [2]): 0.41

Substance: ME59 (SGN-17 scFv-BLA, light chain Q94 to His)
- Index pH7.4 (p97 (melanotransferrin) [2]): 0.28

Substance: ME46 (SGN-17 scFv-BLA, heavy chain T99 to His)
- Index pH6.5 (p97 (melanotransferrin) [1]): 0.09
- Index pH7.4 (p97 (melanotransferrin) [2]): 0.38

Substance: ME55 (SGN-17 scFv-BLA, heavy chain Y108 to His)
- Index pH6.5 (p97 (melanotransferrin) [1]): 0.7
- Index pH7.4 (p97 (melanotransferrin) [2]): 0.8

Substance: ME51 (SGN-17 scFv-BLA, heavy chain Y104 to His)
- Index pH7.4 (p97 (melanotransferrin) [2]): 0.26

Substance: ME43 (SGN-17 scFv-BLA, heavy chain K64 to His)
- Index pH6.5 (p97 (melanotransferrin) [1]): 0.65
- Index pH7.4 (p97 (melanotransferrin) [2]): 0.61

Substance: ME63 (SGN-17 scFv-BLA, light chain V98 to His)
- Index pH7.4 (p97 (melanotransferrin) [2]): 0.21

Substance: ME53 (SGN-17 scFv-BLA, heavy chain M106 to His)
- Index pH6.5 (p97 (melanotransferrin) [1]): 0.8
- Index pH7.4 (p97 (melanotransferrin) [2]): 0.97

Substance: ME47 (SGN-17 scFv-BLA, heavy chain L100 to His)
- Index pH7.4 (p97 (melanotransferrin) [2]): 0.24

Substance: ME48 (SGN-17 scFv-BLA, heavy chain A101 to His)
- Index pH6.5 (p97 (melanotransferrin) [1]): 0.33
- Index pH7.4 (p97 (melanotransferrin) [2]): 0.49

Substance: ME61 (SGN-17 scFv-BLA, light chain T96 to His)
- Index pH6.5 (p97 (melanotransferrin) [1]): 0.81
- Index pH7.4 (p97 (melanotransferrin) [2]): 0.82

Substance: ME58 (SGN-17 scFv-BLA, light chain R58 to His)
- Index pH6.5 (p97 (melanotransferrin) [1]): 0.76
- Index pH7.4 (p97 (melanotransferrin) [2]): 0.92

Substance: ME66 (SGN-17 scFv-BLA, light chain T101 to His)
- Index pH6.5 (p97 (melanotransferrin) [1]): 1.73
- Index pH7.4 (p97 (melanotransferrin) [2]): 1.36
